Experimental data taken from PMC2942843.

Target: T1, CbbR (His6-CbbR) (Acidithiobacillus ferrooxidans ATCC 23270) (UniProt B7JB31)
T1 sequence: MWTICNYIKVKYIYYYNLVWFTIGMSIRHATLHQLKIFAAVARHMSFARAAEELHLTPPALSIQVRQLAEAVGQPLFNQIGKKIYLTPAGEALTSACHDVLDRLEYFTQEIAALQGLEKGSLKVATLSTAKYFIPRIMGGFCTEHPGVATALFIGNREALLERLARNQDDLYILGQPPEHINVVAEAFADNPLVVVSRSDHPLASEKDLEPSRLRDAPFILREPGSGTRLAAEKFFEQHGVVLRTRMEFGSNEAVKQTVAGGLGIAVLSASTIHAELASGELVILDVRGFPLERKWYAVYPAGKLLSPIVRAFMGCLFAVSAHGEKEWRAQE
Test: EMSA
Details: 12 mM HEPES-NaOH pH 7.9, 4 mM Tris-HCl pH 7.9, 1 mM EDTA, 60 mM KCl, 1 mM DTT, 10% glycerol, 5 ug/ul BSA, 2 ug/ul poly(dI-dC), 30 C, 15 min, 20 pmol DNA

Sequence	binding
ACGACGGCGGCAAGCACCGCCAACCACCGAACATCAGACGCGTAGTCACAAACCACCATCACATCAGTGATACGTTATTGAAAAAATAATAACTACTTATTAGCGCTTATGATTCACCCGCACTATAGTTCGATCATCGCTGCAGACGCAGCGATTGCGCCGGGGGCACCGGCGTCGGGCAACTGCATGGAGGTGGCATATGGCCGTCAAGACCTATAACGCGGGTGTGAAGGATTACCGG (double strand) [Pcbb2 (cbb2 operon promoter region)]	binds
CATTGAACAGGGTCAGCTCCTGGCCATGGCGGGCGCGCAACACCTTGAGCAGATGATGGCTGGCACCTGCCGGCAGCAAAAAGGGGCCGCTTTCGGGCAGGTCGGAATCGGCGTATAAGTGAATGCGCGGCATAGGTTACGATATCGGGCAGGAGAACACAGGTGGGATTATATCATCGTGGCGCTGGCGCAGGTGGCGCATGATCAAAGACTCCGAT (double strand) [Pcbb3 (cbb3 operon promoter region)]	binds
CGGCAGCGAAGATCTTGAGTTGGTGCAAGGTTGCATGACGGATAGACATGCCAATAGTAAACCATACTAAATTATAATAGTAAATATATTTTACTTTTATATAGTTACAGATCGTCCACAATGCTACCCAAGCATTGGAACCTGGCAGGTGGCTCCAATCACCATCGTCTACCATGACACAAGGAGAGCAAGCATGGCCGTAAAAAAGTATGAGGCCGGAG (double strand) [Pcbb1 (cbb1 operon promoter region)]	binds
TTTGGGGTGGCAGCAAGAAGTCCTCCTTTCCGGTAGTTGGCCCGGCGCGCTCTTGAGGCCGCACATCCGCCCCGCTTGAGCCAATTTTGCCTTTGCGGTGAGCGGGTTTCACTTCGCTTGTGGCGCTTTCCTTTGATATAGTGCGCGCTGTCCCTGTCGCGCTGCGACAGGTCGGCCTAGCTATTGAGGAGCCCAGTGCATGTCCAAAAGTCATCTTTTCACCTCTGAATCCGTTTCC (double strand) [Pcbb4 (cbb4 operon promoter region)]	no binding
